Source: patent US10450368

What was measured:
[1] = target: HIV-1 CH505 transmitted/founder gp120 Env (HIV-1); assay: competition ELISA, blocking of CH239 binding to CH505 TF gp120
[2] = target: HIV-1 CH505 transmitted/founder gp120 Env (HIV-1); assay: competition ELISA; competitor biotinylated CH241 on CH505 TF gp120
[3] = target: CH505w160.C12D8gp120 (HIV-1); assay: direct-binding ELISA
[4] = target: CH505w136.B8D8gp120 (HIV-1); assay: direct-binding ELISA
[5] = target: CH505w136.B20D8gp120 (HIV-1); assay: direct-binding ELISA
[6] = target: CH505.TF mutant gp120 M8 (HIV-1); assay: direct-binding ELISA
[7] = target: CH505w136.B36D8gp120 (HIV-1); assay: direct-binding ELISA
CH505.M11D8gp120/293F = assay: direct-binding ELISA
[8] = target: CH505_w137V209C12.D11gp120 (HIV-1); assay: direct-binding ELISA
[9] = target: CH505w136.B10D8gp120 (HIV-1); assay: direct-binding ELISA
[10] = target: CH505w160.C11D8gp120 (HIV-1); assay: direct-binding ELISA
[11] = target: CH505w160.C14D8gp120 (HIV-1); assay: direct-binding ELISA
[12] = target: CH505w160.C2D8gp120 (HIV-1); assay: direct-binding ELISA
[13] = target: CH505.TF mutant gp120 M20 (HIV-1); assay: direct-binding ELISA
[14] = target: CH505w136.B5D8gp120 (HIV-1); assay: direct-binding ELISA
[15] = target: CH505w160.D1D8gp120 (HIV-1); assay: direct-binding ELISA
CH505.M21D8gp120/293F = assay: direct-binding ELISA
CH505.M7D8gp120/293F = assay: direct-binding ELISA

CH106 (antibody)
IC50 [1]: 4.6 µg/mL | IC50 [2]: 14.3 µg/mL | LogAUC [3]: 12.2 | LogAUC [4]: 11.7 | LogAUC [5]: 12.1 | LogAUC [6]: 10.2 | LogAUC [7]: 13.1 | LogAUC (CH505.M11D8gp120/293F): 12.8 | LogAUC [8]: 12.2 | LogAUC [9]: 8.97 | LogAUC [10]: 8.15 | LogAUC [11]: 6.94 | LogAUC [12]: 9.29 | LogAUC [13]: 10.7 | LogAUC [14]: 10.9 | LogAUC [15]: 7.06 | LogAUC (CH505.M21D8gp120/293F): 11.5 | LogAUC (CH505.M7D8gp120/293F): 11
